Test results: patent US20080311122A1 (AstraZeneca / MedImmune, published 2008)
No end group written: not given here.

Tests used:
[1] = molecular target: T1, activated HMG1 prepared from LPS stimulated THP-1 cells (human, UniProt P09429 1-215); experiment: cell-based or functional assay
T1 sequence (looked up): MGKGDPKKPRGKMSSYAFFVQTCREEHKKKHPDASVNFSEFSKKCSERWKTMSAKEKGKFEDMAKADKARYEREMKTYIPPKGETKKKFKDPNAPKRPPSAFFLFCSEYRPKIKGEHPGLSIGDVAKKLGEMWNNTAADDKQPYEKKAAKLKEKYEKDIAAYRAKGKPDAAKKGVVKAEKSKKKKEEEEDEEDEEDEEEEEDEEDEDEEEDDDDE

[2] = molecular target: T2, HMGB1 peptide 166-183 (UniProt P09429 166-183, also: biotinylated, site not given here); experiment: ELISA on biotinylated HMGB1 peptides captured on NeutrAvidin, antibody in serial dilution from 10 ug/ml, anti-human IgG-HRP, OD 450
T2 peptide (looked up): GKPDAAKKGVVKAEKSKK
Experimental: (§1) The plate was then blocked with 4% milk powder dissolved in PBS at 37° C. for 1 hour. The blocking solution was removed and replaced with human anti-HMG1 antibodies at various concentrations (see FIGS. 5A-B). […] HRP activity was detected with Sureblue HRP substrate (KPL). Plates were read at 450 nm using a Kinetic Microplate Reader (Molecular Devices). […] After washing and blocking with 1% BSA in PBS, the biotinylated peptides were individually added into the avidin coated wells and incubated for 30 min at room temperature. The serial diluted antibody G4, S16 and S6 at the initial concentration at 10 μg/ml were then transferred into the wells followed by adding mouse anti human IgG-HRP conjugate (Pierce). Detection was accomplished by adding 50 μl of tetramethylbenzidine (TMB) substrate (KPL) and the absorbance was read at […].

[3] = molecular target: T3, HMGB1 in joint lysates of adjuvant induced arthritis (AIA) rats (rat, UniProt P63159 2-215); experiment: immunoprecipitation from AIA rat joint lysate, Western blot probed with biotinylated S16 (the method names G4, S6 and isotype control, the legend names S16 for lane 2)
T3 construct: also called HMGB1 from arthritis joints; AA joint lysates
T3 sequence (looked up): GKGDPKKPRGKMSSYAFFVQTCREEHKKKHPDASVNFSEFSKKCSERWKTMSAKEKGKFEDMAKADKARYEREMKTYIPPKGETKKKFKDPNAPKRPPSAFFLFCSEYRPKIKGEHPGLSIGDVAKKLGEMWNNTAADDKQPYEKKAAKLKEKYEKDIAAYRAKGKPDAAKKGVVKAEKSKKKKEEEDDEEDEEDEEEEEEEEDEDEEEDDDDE
Experimental: Immunoprecipitation and Western Blot: Anti-HMGB1 mAbs (G4 and S6) and isotype control were first biotinylated using EZ-Link Sulfo-NHS-LC-Biotin as instructed by the manufacturer (Pierce). After labeling, the mAb was tested for binding to HMGB1 by ELISA with unlabeled mAbs as controls. The biological samples, joint lysate (30 μl), was mixed with […] biotinylated G4, S6 or isotype control overnight at 4° C. in 300 μl IP buffer [containing 1×PBS, pH 7.2 (Invitrogen), 0.1% Tween 20, 0.5 M sodium chloride, 10 mM sodium butyrate, and a 1:100 dilution of Phosphatase Inhibitor Cocktail I (Sigma)]. For sepsis sera, Tween 20, sodium chloride, sodium butyrate, and Phosphatase Inhibitor Cocktail I were added to 500 μl sera with the same final concentration as IP buffer. Streptavidin Sepharose beads (GE Healthcare) were blocked in 4% BSA-PBS overnight at 4° C., then washed three times with PBS and resuspended in 1×PBS resulting in 50% slurry. The bead slurry (60 μl) was then added to the overnight mAb/sample mixture and mixed for 20 minutes at room temperature. The beads were washed once with PBS, five times with IP Buffer and then washed twice with PBS by spinning at 1000 g for two min. […] The bands were detected by LumiGlo substrate solution (KPL) after washing.

[4] = molecular target: T4, HMGB1 B-box peptide 108-138 (UniProt P09429 108-138, biotinylated); experiment: ELISA, biotinylated peptides on avidin plate
T4 peptide (looked up): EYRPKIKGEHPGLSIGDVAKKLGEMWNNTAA
Experimental: as §1

[5] = molecular target: T5, HMGB1 C-terminal tail peptide 188-215 (human, biotinylated); experiment: ELISA, biotinylated peptides on avidin plate
T5 peptide: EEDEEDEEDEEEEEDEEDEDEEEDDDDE
Experimental: as §1

[6] = molecular target: T6, 106-123 (also: biotinylated, site not given here); experiment: ELISA on biotinylated HMGB1 peptides captured on NeutrAvidin, antibody in serial dilution from 10 ug/ml, anti-human IgG-HRP, OD 450
T6 construct: Bar group label on the sheet
T6 peptide: CSEYRPKIKGEHPGLSIG
Experimental: as §1

B1: anti-HMG1 antibody S16 (antibody, V domains shown)
VH: EVQLLESGGGLVQPGGSLRLSCAASGFTFSWYSMLWVRQAPGKGLEWVSYISPSGGFTNYADSVKGRFTISRDNSKNTLYLQMNSLRAEDTAVYYCARWDYNSGWYYDHWGQGTLVTVSS
VL: DIQMTQSPDTLSLSPGERATLSCRASQSVNSRNLAWYQQKPGQAPRLLIYGASTRATGIPDRFSGSVSGTEFTLTISSLQPDDFATYYCQQYNSYFTFGQGTKLEIK
notes: also called ATCC PTA-6259
IC50, inhibition of native activated HMG1 stimulated IL-6 release from human PBMC [1]: 38.9 nM
binding result [2]: binds
binding result [3]: binds

B2: anti-HMG1 antibody G4 (antibody, V domains shown)
VH: EVQLLESGGGLVQPGGSLRLSCAASGFTFSWYDMTWVRQAPGKGLEWVSSISPSGGYTKYADSVKGRFTISRDNSKNTLYLQMNSLRAEDTAVYYCTTEFYDYLDVWGKGTTVTVSS
VL: DIQMTQSPGTLSLSPGEGATLSCRASQSVSSTYLAWYQQKPGQAPRLLIYEASKRATGTPARFSGSGSGTDFTLSISSLEPEDFAVYYCQHRHNWPPQWTFGQGTKVEVK
notes: also called ATCC PTA-6258
binding result [4]: binds
binding result [5]: binds
binding result [6]: binds
